Assays:
[1] = molecular target: T1, human DR4 (Death Receptor 4), cell surface expressed on human tumor cell lines (human, UniProt O00220 24-468); assay: flow cytometry, DLD-1 cells, n = 3
T1 construct: also called TNFRSF10A; TRAIL-R1
T1 sequence: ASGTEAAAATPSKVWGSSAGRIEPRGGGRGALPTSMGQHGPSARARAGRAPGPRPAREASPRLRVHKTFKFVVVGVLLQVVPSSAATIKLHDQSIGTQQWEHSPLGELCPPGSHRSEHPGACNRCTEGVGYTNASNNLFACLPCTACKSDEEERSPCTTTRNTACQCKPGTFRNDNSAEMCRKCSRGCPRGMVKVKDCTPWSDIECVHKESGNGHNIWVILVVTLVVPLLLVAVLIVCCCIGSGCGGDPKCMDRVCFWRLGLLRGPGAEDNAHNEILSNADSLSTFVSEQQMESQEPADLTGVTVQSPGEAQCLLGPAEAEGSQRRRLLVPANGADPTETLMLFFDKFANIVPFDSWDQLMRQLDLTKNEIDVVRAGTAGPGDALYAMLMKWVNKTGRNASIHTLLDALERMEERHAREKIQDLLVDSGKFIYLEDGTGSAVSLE

[2] = molecular target: T1, human DR4 (Death Receptor 4), cell …; assay: flow cytometry, MDA-MB-231 cells, n = 1
[3] = molecular target: T1, human DR4 (Death Receptor 4), cell …; assay: flow cytometry, DLD-1 cells, n = 1
[4] = molecular target: T2, mouse FAPα on Expi293F cells (mouse (Mus musculus), UniProt P97321 1-761); assay: flow cytometry on Expi293F cells transiently expressing mouse FAPα, gMFI PE
T2 sequence: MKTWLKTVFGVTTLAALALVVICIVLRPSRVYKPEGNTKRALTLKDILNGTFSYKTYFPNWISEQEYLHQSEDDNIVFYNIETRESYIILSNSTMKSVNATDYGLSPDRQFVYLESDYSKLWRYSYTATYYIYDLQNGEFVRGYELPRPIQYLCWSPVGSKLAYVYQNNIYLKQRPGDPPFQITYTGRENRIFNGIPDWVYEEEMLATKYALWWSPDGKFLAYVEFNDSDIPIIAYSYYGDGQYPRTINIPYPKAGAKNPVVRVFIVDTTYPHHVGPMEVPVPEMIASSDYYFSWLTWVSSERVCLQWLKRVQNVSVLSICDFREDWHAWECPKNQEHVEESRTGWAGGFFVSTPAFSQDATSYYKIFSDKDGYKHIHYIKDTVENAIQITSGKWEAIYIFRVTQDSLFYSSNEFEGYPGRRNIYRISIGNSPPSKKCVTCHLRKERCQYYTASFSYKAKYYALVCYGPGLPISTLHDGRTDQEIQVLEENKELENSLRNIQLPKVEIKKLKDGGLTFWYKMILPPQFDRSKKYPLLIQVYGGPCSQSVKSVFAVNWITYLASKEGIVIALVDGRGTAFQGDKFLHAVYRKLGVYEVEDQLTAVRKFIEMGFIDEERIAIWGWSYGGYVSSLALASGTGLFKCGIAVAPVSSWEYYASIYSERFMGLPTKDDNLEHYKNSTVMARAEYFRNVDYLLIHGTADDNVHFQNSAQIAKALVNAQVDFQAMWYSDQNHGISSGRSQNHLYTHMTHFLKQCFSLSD
Protocol: Binding of BisG1-FAPα-FERL/DR4-FERR, BisG1-FAPα-FEAL/b12-FEAR and IgG1-FAPα-FERL to FAPα of species commonly used for nonclinical toxicology studies was assessed by flow cytometry using Expi293F cells transiently expressing FAPα from different animal species. IgG1-b12 was included as negative control.
Expi293F cells expressing recombinant FAPα from various species (human, cynomolgus monkey, dog, pig, rat or mouse) were seeded (20,000 cells/well) in 96-Well round bottom plates (Greiner Bio-one, Cat #650101). Antibody dilutions were prepared using FACS buffer, consisting of PBS (Capricorn Scientific, Cat #PBS-10XA, diluted to 1×PBS in distilled water)+1% BSA (Roche, Cat #10735086001)+0.02% Sodium Azide (Bio-World, Cat #41920044-3). Plates were centrifuged, supernatant was removed, and cells were resuspended in 100 μL of antibody dilutions (concentration range 30-0.00017 μg/mL with three-fold serial dilutions using FACS buffer) of BisG1-FAPα-FERL/DR4-FERR, BisG1-FAPα-FEAL/b12-FEAR, IgG1-FAPα-FERL and IgG1-b12 and incubated for 30 min at 4° C. […] After 30 min incubation at 4° C., cells were washed with FACS buffer and resuspended in FACS buffer supplemented with TO-PRO-3 Iodide viability marker (Invitrogen, Cat #T3605, diluted 1:4,000). Antibody binding to viable cells (gMFI of PE on TO-PRO-3 negative cells) was analyzed by flow cytometry on a FACS Celesta and FACS_Diva software (first two experiments) or iQue® 3 and FlowJo software (last experiment). gMFI was determined and visualized using GraphPad Prism. Binding curves were analyzed using nonlinear regression analysis. The concentration (pg/mL) at which 50% of the maximal effect was observed (EC₅₀) was derived from the fitted curves.

[5] = molecular target: T1, human DR4 (Death Receptor 4), cell …; assay: flow cytometry, HCT-116 cells, n = 3
[6] = molecular target: T1, human DR4 (Death Receptor 4), cell …; assay: flow cytometry, HCT-116 cells, n = 2
[7] = molecular target: T1, human DR4 (Death Receptor 4), cell …; assay: flow cytometry, PANC-1 cells, n = 2
[8] = molecular target: T1, human DR4 (Death Receptor 4), cell …; assay: flow cytometry, HCT-15 cells, n = 2

B1: BisG1-FAPα-FERL/DR4-FERR (bispecific antibody, human IgG1, kappa, lambda)
heavy 1: EVQLLESGGGLVQPGGSPRLSCEASGFTFSSYALSWVRQAPGKGLEWVSAISGSGGGRYYADSVKGRFTISRDNSKNTLFLQMNSLRAEDTAVYYCAKEGYSSSGTYWDHWGQGTLVTVSSASTKGPSVFPLAPSSKSTSGGTAALGCLVKDYFPEPVTVSWNSGALTSGVHTFPAVLQSSGLYSLSSVVTVPSSSLGTQTYICNVNHKPSNTKVDKRVEPKSCDKTHTCPPCPAPEFERGPSVFLFPPKPKDTLMISRTPEVTCVVVDVSHEDPEVKFNWYVDGVEVHNAKTKPREEQYNSTYRVVSVLTVLHQDWLNGKEYKCKVSNKALPAPIEKTISKAKGQPREPQVYTLPPSREEMTKNQVSLTCLVKGFYPSDIAVEWESNGQPENNYKTTPPVLDSDGSFLLYSKLTVDKSRWQQGNVFSCSVMHEALHNHYTQKSLSLSPG
light 1: AIQMTQSPSSVSASVGDRVTITCRASQGVSSWLAWYQQKPGRAPKLLIYVASTLQSGVPSRFSGSGSGTDFTLTINSLQPEDFATYYCQQANSFPPTFGQGTRLEMKRTVAAPSVFIFPPSDEQLKSGTASVVCLLNNFYPREAKVQWKVDNALQSGNSQESVTEQDSKDSTYSLSSTLTLSKADYEKHKVYACEVTHQGLSSPVTKSFNRGEC
heavy 2: QVQLQESGPGLVKPSGTLSLTCAVSGGSISSYSWWSWIRQPPGKGLEWIGELYHSGSTNYNPSLKSRVTISVDKSKNQFSLKLRSVTAADTAVYYCVRGVATIDYWGQGTLVTVSSASTKGPSVFPLAPSSKSTSGGTAALGCLVKDYFPEPVTVSWNSGALTSGVHTFPAVLQSSGLYSLSSVVTVPSSSLGTQTYICNVNHKPSNTKVDKRVEPKSCDKTHTCPPCPAPEFERGPSVFLFPPKPKDTLMISRTPEVTCVVVDVSHEDPEVKFNWYVDGVEVHNAKTKPREEQYNSTYRVVSVLTVLHQDWLNGKEYKCKVSNKALPAPIEKTISKAKGQPREPQVYTLPPSREEMTKNQVSLTCLVKGFYPSDIAVEWESNGQPENNYKTTPPVLDSDGSFFLYSRLTVDKSRWQQGNVFSCSVMHEALHNHYTQKSLSLSPG
light 2: QSALTQPPSASGSPGQSVTISCTGTSSDVGGYNFVSWYQQDPGKAPKLLIYEVTKRPSGVPDRFSGSKSGNTASLTVSGLQAEDEADYYCSSYAGSNNVMFGGGTKLTVLGQPKAAPSVTLFPPSSEELQANKATLVCLISDFYPGAVTVAWKADSSPVKAGVETTTPSKQSNNKYAASSYLSLTPEQWKSHRSYSCQVTHEGSTVEKTVAPTECS
notes: Human IgG1 bispecific made by controlled Fab-arm exchange of IgG1-FAPα-FERL and IgG1-DR4-FERR; monovalent for FAPα and for DR4; also called GEN1057
EC50 [1]: 0.67 µg/mL
EC50 [2]: 1.12 µg/mL
EC50 [3]: 0.75 µg/mL
binding result [4]: binds
EC50 [5]: 0.53 µg/mL
EC50 [6]: 0.55 µg/mL
EC50 [7]: 1.89 µg/mL
EC50 [8]: 0.69 µg/mL

Reference: patent US20250002610A1 (Genmab, published 2025)
